Data reported in PMC8004850, “The Histidine Phosphocarrier Kinase/Phosphorylase from Bacillus Subtilis Is an Oligomer in Solution with a High Thermal Stability” (International Journal of Molecular Sciences, 2021).

Biological target: the molecule itself
Test: small-angle X-ray scattering (SAXS); 50 mM sodium phosphate buffer pH 7.0, 36 (legend: 35) and 8 µM protein, 25 °C; gyration radius compared with that calculated for the hexamer of PDB 1KNX

B1: histidine phosphocarrier protein (HPr) kinase/phosphorylase of Bacillus subtilis (enzyme, UniProt O34483 1-310, looked up)
chain: MAKVRTKDVMEQFNLELISGEEGINRPITMSDLSRPGIEIAGYFTYYPRERVQLLGKTELSFFEQLPEEEKKQRMDSLCTDVTPAIILSRDMPIPQELIDASEKNGVPVLRSPLKTTRLSSRLTNFLESRLAPTTAIHGVLVDIYGVGVLITGKSGVGKSETALELVKRGHRLVADDCVEIRQEDQDTLVGNAPELIEHLLEIRGLGIINVMTLFGAGAVRSNKRITIVMNLELWEQGKQYDRLGLEEETMKIIDTEITKLTIPVRPGRNLAVIIEVAAMNFRLKRMGLNAAEQFTNKLADVIEDGEQEE
notes: HPr kinase/phosphorylase (HPrK/P) of Bacillus subtilis; theoretical molecular weight 36.6 kDa including the His-tag; Vector was a gift from Dr. A. Galinier; Oligomeric state depends on the buffer: monomer in pure water (DLS), mainly hexamer in 50 mM sodium phosphate pH 7.0; also called bsHPrK/P; HPrK/P; source: E. coli BL21 (DE3), purified (Ni-resin, Superdex 200 gel filtration), dialysed against …
stoichiometry N: 6
